The results in this text go back to US20260265332A1, “PROCESS FOR PREPARATION OF DUAL GIP/GLP-1 PEPTIDES HAVING CONTROLLED PARTICLE SIZE” (ASSIA CHEMICAL INDUSTRIES LTD., priority 2023, published 2026).

What all share (format): physicochemical
The nature of data set [1]: Bulk density (BD), USP 2014 Method I (616) Bulk Density and Tapped Density of Powders. The note with it: lyophilized Tirzepatide powder, before particle size reduction. On the procedure:
Bulk density (BD) was measured according to USP 2014 Method I (616) Bulk Density and Tapped Density of Powders.

Data set [2] in a line: Flowability, flow through an orifice (BEP2 Flowability Tester, 25 mm nozzle). As to conditions: lyophilized Tirzepatide powder; flow through funnel, 25 mm aperture. The source says: Instrument: BEP2 Flowability Tester from Copley Scientific, with Funnel Attachment and Manually Operated Stirrer with a nozzle corresponding to aperture size of 25 mm.
Methodology: Flow Through an Orifice
The test sample was introduced into the funnel and the time required for the entire sample to flow out of the funnel was measure using a suitable stopwatch.
The flow rate results are expressed in terms of mass vs time, i.e., grams per second.

The nature of data set [3]: Particle size distribution by laser diffraction (Malvern Mastersizer 3000, Mie theory, Isopar-G). The note with it: Tirzepatide powder after particle size reduction (jet milling or sieving). Here is the method: As used herein, particle size distribution is determined by means of laser diffractometry. More specifically, unless otherwise indicated, the particle size was determined using a Mastersizer 3000 from Malvern Instruments. Preferably, particle size and particle size distribution are determined by laser light diffraction, using Mie theory, and Isopar-G dispersant (isoparaffinic fluid (CAS No) 64742-48-9)) refractive index 1.42.
It will be understood that the term “D(90)” as used herein refers to a particle size distribution where 90% of the volume of particles have a diameter lower than the D(90) value.
• Instrumentation: Malvern Laser Diffraction Mastersizer 3000, Hydro My cell • Measuring range: 0.01-3500 mcm • Analysis model: Mie Theory • Powder RI: 1.488, Absorption: 1 • Dispersant name: Isopar-G • Dispersant RI: 1.42 • Speed rate of the flow cell: 2500 • Internal Sonication: 1 minute • Recirculation time: 1 minute

Values joined by “and” are separate entries in the source; they are usually repeats but may differ in a detail not shown here. Equal entries are not always repeated.

As to Tirzepatide [Example 1], in data set [1], the “BD (bulk density)” value worked out at 0.1 g/mL. The substance further had a flowability in data set [2] of 6.1 g/s.

For the substance Tirzepatide [Example 3B], the “particle size d(0.9)” value in data set [3] is 128 μm and 128.0 μm.

As to Tirzepatide [Example 2], the “particle size d(0.9)” value in data set [3] turned out to be 21.9 μm.

Take Tirzepatide [Example 1B]: the “BD (bulk density)” value in data set [1] was 0.007 g/mL. The flowability entry in data set [2] was “non flowable”.

As to Tirzepatide [Example 1A], the “BD (bulk density)” value in data set [1] came out at 0.13 g/mL. In data set [2], this substance came in with a flowability of 9.7 g/s.

With Tirzepatide [Example 3], the “particle size d(0.9)” value in data set [3] is 31 μm and 30.9 μm.

Regarding Tirzepatide [Example 3A], in data set [3], the “particle size d(0.9)” value is 59 μm and 59.1 μm.
